Measured values published in the supplement of paper PMC10126150.
± gives the standard deviation of the averaged measurements.

system: ATP; assay: switch fluorescence ratio, 500 uM ATP over buffer (Cy3 cluster intensity, sum of 5 cycles each) (fold (ratio)); higher = stronger signal-on switching upon ATP binding; sequences stand for … in TCGTCGGCAGCGTCAGATGTGTATAAGAGACAGTTTTTTTTTTTTTTTTTTTTTTTTT…TC; settings: aptamer strand: ATP DNA aptamer (quencher-CACCTGGGGGAGTATTGCGGAGGAAGG + anchor), 100 nM annealed; ATP concentration: 500 uM
Summary of the method: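 Values give the fluorescence ratio for each switch-domain sequence, averaged from per-cluster ratios of summed target-cycle to summed buffer-cycle Cy3 intensity. The Cy3-labelled switching-strand clusters sat on a modified Illumina MiSeq flow-cell, were annealed to 100 nM quencher-labelled ATP aptamer, and were imaged in selection buffer, then after 15 min with 500 uM ATP at 22 °C. Five cycles ran with NaOH stripping and re-annealing between them, and clusters outside 100-1000 RFU were excluded.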
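Also: ATP exposure 15 min at 22 °C before imaging.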

Sequence | switch fluorescence ratio
CGGGGTTGAA | 0.998 ± 0.03
CGGGGTTTGA | 1.02 ± 0.028
CGGGGTTTGT | 1.01 ± 0.011
CGGGGTTTTT | 1.03 ± 0.12
CGGGTAAGT | 1 ± 0.022
CGGGTAGGTA | 1 ± 0.012
CGGGTCCGTA | 0.9751 ± 0.004
CGGGTCGGGG | 0.998 ± 0.025
CGGGTCTTGG | 1.03 ± 0.023
CGGGTGAAGG | 1.06 ± 0.049
CGGGTGGCAG | 1.01 ± 0.061
CGGGTGGCGG | 0.994 ± 0.012
CGGGTGGTGC | 1.014 ± 0.0086
CGGGTGGTTC | 0.994 ± 0.012
CGGGTGTAAG | 1.01 ± 0.033
CGGGTGTCAC | 1.06 ± 0.024
CGGGTGTGTC | 1.045 ± 0.0042
CGGGTTCCAC | 1.01 ± 0.05
CGGGTTTAAA | 1 ± 0.011
CGGGTTTGTC | 1 ± 0.035
CGGGTTTTAC | 1.01 ± 0.039
CGGGTTTTCG | 0.988 ± 0.018
CGGTAAAGCG | 0.9808 ± 0.0071
CGGTAATGTT | 1 ± 0.027
CGGTACACGT | 1.0186 ± 0.00031

Sequence | switch fluorescence ratio
CGGTACCCAT | 1.01 ± 0.018
CGGTACCGTG | 0.9844 ± 0.007
CGGTACGACG | 0.94 ± 0.019
CGGTACGAGC | 0.992 ± 0.046
CGGTACGGAT | 0.989 ± 0.043
CGGTACTTGG | 0.967 ± 0.05
CGGTAGACCT | 1.105 ± 0.0037
CGGTAGGACA | 1 ± 0.011
CGGTAGGGTT | 0.978 ± 0.022
CGGTAGTTCG | 0.955 ± 0.038
CGGTATAACG | 0.997 ± 0.043
CGGTATACTG | 1.04 ± 0.049
CGGTATGGCT | 0.9689 ± 0.0062
CGGTCAGTTT | 1.025 ± 0.0089
CGGTCATATT | 0.9892 ± 0.0037
CGGTCCCGGC | 1.03 ± 0.05
CGGTCCGTTT | 1.02 ± 0.042
CGGTCCTATG | 0.993 ± 0.029
CGGTCGGTTG | 1.06 ± 0.022
CGGTCTACCT | 1.02 ± 0.014
CGGTCTATAG | 1.02 ± 0.053
CGGTCTGCGA | 1.05 ± 0.013
CGGTGACTGA | 0.9569 ± 0.008
CGGTGAGGGA | 0.978 ± 0.044
CGGTGAGGGT | 0.9863 ± 0.0071

Sequence | switch fluorescence ratio
CGGTGAGTGG | 1.01 ± 0.02
CGGTGGCGGG | 1.004 ± 0.0095
CGGTGGGACG | 1.02 ± 0.022
CGGTGGGGAC | 1.04 ± 0.13
CGGTGGGGCA | 1.1 ± 0.13
CGGTGGGTGT | 0.931 ± 0.011
CGGTGGTCCA | 0.997 ± 0.017
CGGTGGTCGC | 0.984 ± 0.019
CGGTGGTGGG | 1.031 ± 0.0066
CGGTGTTAAC | 0.957 ± 0.036
CGGTGTTGTC | 0.964 ± 0.0037
CGGTTAAAGC | 0.94 ± 0.014
CGGTTAACGT | 1.01 ± 0.033
CGGTTAATTT | 1.01 ± 0.027
CGGTTACCGT | 0.986 ± 0.013
CGGTTACGAC | 1.02 ± 0.021
CGGTTACGAG | 0.9952 ± 0.0029
CGGTTAGGAA | 1.01 ± 0.025
CGGTTAGGGA | 0.965 ± 0.03
CGGTTATCGG | 1.002 ± 0.0031
CGGTTCGGCG | 0.987 ± 0.0099
CGGTTGCCCG | 0.979 ± 0.12
CGGTTGGCCT | 0.9978 ± 0.0069
CGGTTGGGTA | 0.977 ± 0.014
CGGTTGGGTG | 0.97348 ± 6.3e-05

Sequence | switch fluorescence ratio
CGGTTGTAGG | 0.999 ± 0.015
CGGTTGTCGG | 0.997 ± 0.013
CGGTTGTGAG | 1.01 ± 0.031
CGGTTGTGTA | 1.03 ± 0.023
CGGTTTACGG | 0.986 ± 0.011
CGGTTTATGA | 0.968 ± 0.016
CGGTTTGAGT | 0.983 ± 0.019
CGGTTTGGCA | 0.992 ± 0.014
CGGTTTGTGT | 0.998 ± 0.029
CGGTTTTGGC | 0.998 ± 0.019
CGGTTTTTTT | 0.978 ± 0.016
CGTAAAACTA | 1.03 ± 0.042
CGTAAAAGAC | 1.23 ± 0.19
CGTAAAATAC | 2.85 ± 0.056
CGTAACCTTG | 1.023 ± 0.0071
CGTAACGTGG | 0.9938 ± 0.0078
CGTAATAGAT | 1.02 ± 0.026
CGTAATGGGG | 1.022 ± 0.01
CGTACAGATA | 0.994 ± 0.027
CGTACAGTGG | 1.02 ± 0.046
CGTACGGACG | 0.984 ± 0.021
CGTACGGCGG | 1.015 ± 0.0038
CGTACTCGTA | 1.01 ± 0.019
CGTAGAAAAG | 0.998 ± 0.025
CGTAGACGAG | 1.03 ± 0.016

Sequence | switch fluorescence ratio
CGTAGACTCG | 1.02 ± 0.05
CGTAGAGGGC | 0.986 ± 0.034
CGTAGATAGC | 1.07 ± 0.02
CGTAGATTTT | 1 ± 0.046
CGTAGCGTCC | 1.13 ± 0.019
CGTAGCTTTG | 1.086 ± 0.0028
CGTAGGAGG | 0.9784 ± 0.0044
CGTAGGTGCA | 1.05 ± 0.022
CGTAGGTTTT | 1 ± 0.067
CGTAGTGTAG | 1.02 ± 0.052
CGTAGTTGG | 0.988 ± 0.049
CGTATAAATC | 1.01 ± 0.043
CGTATACTGA | 1.01 ± 0.055
CGTATATGGC | 1.1 ± 0.14
CGTATCTCTA | 0.989 ± 0.01
CGTATGCCGG | 0.9999 ± 0.0091
CGTATGGCCA | 1.0198 ± 0.00072
CGTATTGAGA | 0.968 ± 0.057
CGTATTGCGT | 1.01 ± 0.025
CGTATTTATT | 1.01 ± 0.021
CGTATTTGAG | 1 ± 0.037
CGTATTTGGG | 0.999 ± 0.034
CGTATTTGTA | 1.01 ± 0.028
CGTATTTTTT | 1.01 ± 0.032
CGTCACGGGA | 1.05 ± 0.036

Sequence | switch fluorescence ratio
CGTCATATGC | 1.29 ± 0.073
CGTCATGCTC | 1.19 ± 0.036
CGTCCACAGG | 2.96 ± 0.092
CGTCGACCGG | 1 ± 0.022
CGTCGAGGGA | 1.1 ± 0.12
CGTCGCAGTG | 1.03 ± 0.052
CGTCGTATAA | 1.02 ± 0.021
CGTCGTGATA | 1.2 ± 0.014
CGTCTAATAG | 1.18 ± 0.03
CGTCTGAATG | 0.9983 ± 0.0024
CGTCTGGGCG | 0.957 ± 0.097
CGTCTGGTGC | 1.03 ± 0.029
CGTCTGTCGG | 1.03 ± 0.019
CGTCTTTTAT | 0.9935 ± 0.0043
CGTCTTTTGG | 1.02 ± 0.025
CGTGAAAGCG | 0.9683 ± 0.005
CGTGAAGGCG | 0.952 ± 0.024
CGTGAAGGGT | 0.992 ± 0.013
CGTGACGGTA | 1.042 ± 0.0014
CGTGAGAGTG | 0.9781 ± 0.0021
CGTGATGATT | 0.9809 ± 0.0078
CGTGATGGGG | 1.04 ± 0.071
CGTGATTTGG | 1.006 ± 0.0065
CGTGCAAATT | 0.985 ± 0.026
CGTGCACAAA | 0.9815 ± 0.0059

Sequence | switch fluorescence ratio
CGTGCCCGTG | 1 ± 0.017
CGTGCGGGTG | 1.03 ± 0.006
CGTGCGTGTA | 1.02 ± 0.053
CGTGCTCTAC | 1.5 ± 0.068
CGTGCTTTTC | 1.15 ± 0.22
CGTGGAACGA | 1.01 ± 0.058
CGTGGGAATT | 0.977 ± 0.019
CGTGGGAGAG | 0.983 ± 0.021
CGTGGGAGGC | 1.04 ± 0.077
CGTGGGGAGG | 1.05 ± 0.017
CGTGGGGCAC | 1.01 ± 0.024
CGTGGGGGT | 0.996 ± 0.035
CGTGGGGTTT | 0.989 ± 0.022
CGTGGGTGGT | 1.0181 ± 0.00048
CGTGGTAAGG | 0.989 ± 0.026
CGTGGTGGG | 0.968 ± 0.029
CGTGGTGGGA | 0.9737 ± 0.0088
CGTGGTTGTC | 0.9871 ± 0.0066
CGTGTAAGGG | 0.974 ± 0.04
CGTGTAATGT | 0.985 ± 0.048
CGTGTAATTT | 0.993 ± 0.016
CGTGTACTTA | 1.03 ± 0.01
CGTGTAGGAG | 0.99262 ± 0.00056
CGTGTAGGTT | 1.02 ± 0.021
CGTGTAGTTT | 1.01 ± 0.036

Sequence | switch fluorescence ratio
CGTGTATATA | 1.018 ± 0.0041
CGTGTATGG | 1.016 ± 0.0031
CGTGTATGTG | 0.969 ± 0.043
CGTGTATTCT | 0.968 ± 0.034
CGTGTCTTGA | 1.027 ± 0.0037
CGTGTGCCGA | 1.01 ± 0.057
CGTGTGGGGT | 1.01 ± 0.027
CGTGTGGTGG | 0.944 ± 0.032
CGTGTGGTGT | 1.03 ± 0.04
CGTGTTCTGG | 0.994 ± 0.031
CGTGTTGGTA | 0.987 ± 0.013
CGTGTTGTAC | 1.13 ± 0.024
CGTGTTTGCC | 1 ± 0.02
CGTGTTTTAG | 1 ± 0.033
CGTTAATCTT | 0.995 ± 0.049
CGTTAATTAC | 1.38 ± 0.036
CGTTAGAATC | 1.014 ± 0.0082
CGTTAGATGG | 1.01 ± 0.011
CGTTAGTGCG | 1 ± 0.025
CGTTCAACTC | 1.04 ± 0.016
CGTTCTGTTT | 1 ± 0.029
CGTTGAGGAA | 0.9853 ± 0.0038
CGTTGCCGTT | 1.06 ± 0.1
CGTTGCGCTG | 1.01 ± 0.0069
CGTTGGCACG | 0.997 ± 0.04
